Values of other authors in patent publication US11878064B2, “Nanoparticle/peptide method of blocking potassium channels” (US Department of the Navy, priority 2019, dated 2024).
Where no end group is shown, it is not given here.

Target: T1, ROMK1 channels (Homo sapiens, UniProt P48048)
T1 sequence (P48048 1-391): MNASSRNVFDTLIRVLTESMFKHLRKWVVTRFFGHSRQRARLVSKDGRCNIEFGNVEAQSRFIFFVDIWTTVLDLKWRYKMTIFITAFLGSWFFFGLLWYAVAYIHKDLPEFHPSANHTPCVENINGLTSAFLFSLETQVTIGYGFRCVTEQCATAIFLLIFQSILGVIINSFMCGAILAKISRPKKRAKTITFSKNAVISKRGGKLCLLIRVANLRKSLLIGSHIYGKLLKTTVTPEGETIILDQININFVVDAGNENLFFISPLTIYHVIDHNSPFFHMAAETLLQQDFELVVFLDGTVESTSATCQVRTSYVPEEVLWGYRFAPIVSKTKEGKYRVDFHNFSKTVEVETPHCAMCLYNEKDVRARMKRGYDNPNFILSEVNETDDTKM
Details: read-out: binding affinity

For “tertiapin (ALCNCNRIIIPHMCWKKCGKK; ends and bridges not checked; cysteine pairing not given here; UniProt P56587 1-21, looked up) [TPN]”, the Kd is given as ~2 nM.
